Assay results as given in patent publication US20100056764A1.
“And” between values parts separate entries of the source, which are not always exact repeats. Equal entries are not always repeated. Where two headings read alike, the source gives them in different places.

Key:
[1] = biological target: human NKG2D (hNKG2D) on the cell surface (human) (UniProt P26718); experiment: flow cytometry, NKG2D-expressing cells pre-incubated with ON72, then recombinant 16F16 (competitor)
[2] = biological target: human NKG2D (hNKG2D) on the cell surface (human) (UniProt P26718); experiment: cell-based or functional assay
[3] = biological target: human NKG2D (hNKG2D) on the cell surface (human) (UniProt P26718); experiment: flow cytometry, NKG2D/DAP10 BaF/3 cells pre-incubated with antibody, then 1 µg hFc-MICA (competitor)
[4] = biological target: human NKG2D (hNKG2D) on the cell surface (human) (UniProt P26718); experiment: flow cytometry, dose-response on NKG2D- and DAP10-expressing BaF/3 cells
[5] = biological target: human NKG2D (hNKG2D) on the cell surface (human) (UniProt P26718); experiment: flow cytometry, dose-response on NKG2D- and DAP10-expressing BaF/3 cells, y axis % of max binding
[6] = biological target: recombinant NKG2D-Fc protein (R&D Systems), immobilized on a Biacore CM5 chip (human) (UniProt P26718); experiment: SPR (Biacore), NKG2D-Fc immobilized on CM5 chip, antibody in solution
[7] = biological target: human NKG2D (hNKG2D) on the cell surface (human) (UniProt P26718); experiment: flow cytometry blocking assay on NKG2D/DAP10-expressing BaF/3 cells: pre-incubation with the antibody, then 1 µg MICA-Fc (hFc-MICA, m12, for ON72 according to paragraph 390); y axis % remaining MICA-Fc binding
[8] = biological target: human NKG2D (hNKG2D) on the cell surface (human) (UniProt P26718); experiment: flow cytometry, NKG2D-expressing cells pre-incubated with ON72 (0.3 µg), then 16F16 IgG4 (0.3 µg, competitor); legend of FIG. 9A
[9] = biological target: human NKG2D (hNKG2D) on the cell surface (human) (UniProt P26718); experiment: flow cytometry, NKG2D/DAP10 BaF/3 cells pre-incubated with antibody, then 1 µg hFc-MICA (competitor); remark: listed apart in the source

Sequence of recombinant NKG2D-Fc protein (R&D Systems), immobilized on a Biacore CM5 chip (human) (P26718 78-216): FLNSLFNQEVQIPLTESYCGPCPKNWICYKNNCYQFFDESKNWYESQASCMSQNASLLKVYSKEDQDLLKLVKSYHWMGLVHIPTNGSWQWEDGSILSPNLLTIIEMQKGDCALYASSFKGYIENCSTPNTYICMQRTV
Sequence of human NKG2D (hNKG2D) on the cell surface (human) (P26718 whole entry T72A): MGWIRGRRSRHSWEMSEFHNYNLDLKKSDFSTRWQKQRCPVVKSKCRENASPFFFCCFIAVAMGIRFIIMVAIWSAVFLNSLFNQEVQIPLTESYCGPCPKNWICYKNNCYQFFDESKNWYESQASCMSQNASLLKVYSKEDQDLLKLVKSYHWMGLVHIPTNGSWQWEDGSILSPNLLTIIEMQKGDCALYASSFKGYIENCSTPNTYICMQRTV

% of 16F16 binding blocked [1]: 82%
% proliferation of PBMC, stimulation CD3 0.1 + CD28 + ON72 (immobilized antibodies) [2]: 22.9%
% proliferation of PBMC, stimulation CD3 0.1 + ON72 (immobilized antibodies) [2]: 7.12%
% proliferation of PBMC, stimulation CD3 0.3 + CD28 + ON72 (immobilized antibodies) [2]: 40.1%
% proliferation of PBMC, stimulation CD3 0.3 + ON72 (immobilized antibodies) [2]: 28.4%
down-modulation of cell-surface NKG2D, NKG2D/DAP10 BaF/3 cells, overnight incubation [2]: 55%
internalization of NKG2D at 1 h, NKG2D+ lymphocytes in whole blood, 0.1 µg/ml [2]: 50 to 75%
internalization of NKG2D at 24 h, NKG2D+ lymphocytes in whole blood, 0.1 µg/ml [2]: 100%
IC50 [3]: 0.019 µg/mL
full blockade of 1 µg MICA-Fc (antibody concentration) [3]: 0.54 µg/mL
EC50 [4]: 0.062 µg/mL and 0.048 nM
EC50 (read off the curve) [5]: 0.06 nM
Kd [6]: 0.17 nM
koff [6]: 0.00011 s⁻¹
kon [6]: 960000 M⁻¹ s⁻¹
IC50 (read off the curve) [7]: 0.02 nM
% of 16F16 binding prevented [8]: 85%
IC50 [9]: 0.02 nM
full blockade of 1 µg MICA-Fc (antibody concentration) [9]: 0.24 nM
Substance: ON72, commercially available murine anti-hNKG2D monoclonal antibody (Beckman Coulter Inc.)
EC50 (µg/ml), inhibition of NK cell killing of ULPB3-expressing target cells (51Cr release) [2]: 0.065 µg/mL
